This sample holds only a part of the variants without activity.
B1: TPR 5TU (parent)
chain: GGAUCUUCUCGAUCUAACAAAAAAGACAAAUCUGCCACAAAGCUUGAGAGCAUCUUCGGAUGCAGAGGCGGCAGCCUUCGGUGGCGCGAUAGCGCCAACGUUCUCAACUAUGACACGCAAAACGCGUGCUCCGUUGAAUGGAGUUUAUCAUG

Variants of: B1
Experiment: polymerase ribozyme fitness, log enrichment relative to wild type (log ratio); higher = more active; in vitro selection for triplet polymerase activity
Outline: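 Input and output libraries were sequenced on Illumina after a single in vitro selection round, run in triplicate on PCR-built, transcribed mutant libraries of each subunit of a heterodimeric triplet polymerase ribozyme. Selection annealed libraries to a biotinylated primer, the partner subunit and triplets, incubated them frozen at −7 °C, then gel-excised extended constructs for streptavidin-bead capture and RT-PCR. Genotypes with ≥10 input reads and ≥1 read per output were kept. Fitness is the logarithm, taken in base 2, of genotype enrichment divided by wild-type enrichment, using inverse-variance-weighted replicate averages.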

| Variant | polymerase ribozyme fitness (log ratio) |
| --- | --- |
| A73G G140A | -2.98 |
| A64G G68U U144A | ≤ -4.2 |
| A66G C114U | -4.17 |
| A73G G83C C95G A120C A122G | ≤ -4.2 |
| C76A C85A C95A A120G | -2.33 |
| C76A C95U C96A A97G C114U A137C | ≤ -4.2 |
| C69G G74U A89U A98U | -2.01 |
| G65A G88U A150G | ≤ -4.2 |
| G70A G81U | -3.25 |
| G71C G83A G117C C129A | ≤ -4.2 |
| C72A A147C | ≤ -4.2 |
| A64C G88C U90G U102G A119U A120U C149G | ≤ -4.2 |
| C76A A91G A120G | -3.67 |
| C76A G141C | -2.39 |
| G68A C85U C105A G124A G133U | ≤ -4.2 |
| C72G U127C G143U U144G | ≤ -4.2 |
| G74A C96G | -2.97 |
| C76A G94C | -0.703 |
| G68A C99A | ≤ -4.2 |
| G67C G68C C118U A120G | ≤ -4.2 |
| A64U C103G U134G G141C | ≤ -4.2 |
| A64G C87A C105A U144G | ≤ -4.2 |
| A64U G84U | ≤ -4.2 |
| C76G C93A C96A G136C | ≤ -4.2 |

| Variant | polymerase ribozyme fitness (log ratio) |
| --- | --- |
| A73U C93U A120G | -2.61 |
| G74C C93U G143U | ≤ -4.2 |
| C72G U146G | ≤ -4.2 |
| A73G A122C | 0.468 |
| G74U C87A C116A U151G | ≤ -4.2 |
| G74A G84C C95U A137C | ≤ -4.2 |
| A73G A120G | 0.0734 |
| G67C G94A C95G A150G | ≤ -4.2 |
| A73G A106C G141U | -1.34 |
| C72G C96U | -4.02 |
| C72U U146G | -0.793 |
| C76A C87U U139G U144A | -2.07 |
| A66G A73C C85G A107U | ≤ -4.2 |
| C72U U78A G84A | ≤ -4.2 |
| C69A U77C A98U A122U U146C U151A | ≤ -4.2 |
| G74A U90C G94A A98U | ≤ -4.2 |
| A73G G92C C96A | -2.51 |
| C75U G83A A98C U134A U135A | -3.58 |
| A73U G80A U134C | -1.91 |
| G67U G74C A107U C123G | ≤ -4.2 |
| C69A G84U A137G | -3.58 |
| C75U C79G | -4.07 |
| C69U C85U U148C | -2.71 |
| C75U C95U | 0.131 |

| Variant | polymerase ribozyme fitness (log ratio) |
| --- | --- |
| G68A C93G | ≤ -4.2 |
| G71A A91G C93U | ≤ -4.2 |
| G67A C72A A142U A150G | ≤ -4.2 |
| A73U U148C G152C | ≤ -4.2 |
| G65A U139C G141C | -3.69 |
| C69G G143C | -4.1 |
| A73U C75A A98U C114U C125A U135A | ≤ -4.2 |
| A64G C103G U148G | ≤ -4.2 |
| G71U C85U | -1.67 |
| C69A A97G A98U U104A G124A | -2.14 |
| C69U U102C | -2.59 |
| C76A G92C A98U A142U | -2.32 |
| G74A A91C A147U U148C | ≤ -4.2 |
| C69G G94A U104G | -1.19 |
| G70A C93A C123U | ≤ -4.2 |
| A73G C149A | ≤ -4.2 |
| C69U C93A C103U C116A U148G | ≤ -4.2 |
| C75U A110C U146G | ≤ -4.2 |
| G67C C79G A97U C116A A142C | ≤ -4.2 |
| A64C G84A G128A | ≤ -4.2 |
| G68C G74C C87U C118A U135A C149G | ≤ -4.2 |
| A66G G88U A119G U139G | ≤ -4.2 |
| G70A G86A U90G C93G A110U C114U U134A | ≤ -4.2 |
| C76A A137U | -3.9 |

| Variant | polymerase ribozyme fitness (log ratio) |
| --- | --- |
| A73C G92U C116G U144C | ≤ -4.2 |
| G68A A98U | -3.61 |
| C75A C116U | ≤ -4.2 |
| G68U G71U G86U A97U | ≤ -4.2 |
| A73G G88A G124C | ≤ -4.2 |
| G71A G140U U148C | ≤ -4.2 |
| A66C C96A | ≤ -4.2 |
| C75U | -0.0565 |
| C75G | -3.24 |
| C75A | -3.85 |
| C76A G92U | -2.07 |
| G68A G74A U90C | ≤ -4.2 |
| C76A C96A A122C C123A | -1.55 |
| G70A C87A C99A | ≤ -4.2 |
| C75G G88A A98U C103U | ≤ -4.2 |
| C72U C75U C87A U90A C95G U102G A150G | ≤ -4.2 |
| A64U A66G U77C C96G C103G C116A | ≤ -4.2 |
| A64C G68C C87A A91G C99A A121C A122C G143U | ≤ -4.2 |
| C75U A113C | -3.87 |
| A73G C85A U109G | -2.78 |
| C69A U102C | ≤ -4.2 |
| C75U A113U G124U U144C | ≤ -4.2 |
| A73G C75U C99A U101G A142G | ≤ -4.2 |
| C69U A122U | -1.27 |

| Variant | polymerase ribozyme fitness (log ratio) |
| --- | --- |
| G70A G124C U144C | ≤ -4.2 |
| C76A A142C | -2.3 |
| C72U U77C C118G | ≤ -4.2 |
| C69U G126C | -0.197 |
| G65C G92A A137C G141C | ≤ -4.2 |
| G70A C105A C123A | ≤ -4.2 |
| C75U G84A U135A | -0.996 |
| G74A G92C C149A | ≤ -4.2 |
| C72U C87A G117C G143U | ≤ -4.2 |
| C75G C76G G92C | ≤ -4.2 |
| G70A G94U C96G A142C U148A | ≤ -4.2 |
| A64C C93U U102G | ≤ -4.2 |
| A66G A89U C95G C116A C123A | ≤ -4.2 |
| C69U U78G C96G U134A U135C | ≤ -4.2 |
| G67C C93A G133A U151G | ≤ -4.2 |
| G71C C87U | -3.34 |
| A66G C76A | -3.94 |
| C72A C103A | ≤ -4.2 |
| C76G C87A U144C G152A | ≤ -4.2 |
| C69G C108U U148A | ≤ -4.2 |
| G70A U82A C87G A89U C103A C105A | ≤ -4.2 |
| G67C C125G | ≤ -4.2 |
| C69A G81A | -1.51 |
| A64G C76U | -3.62 |

| Variant | polymerase ribozyme fitness (log ratio) |
| --- | --- |
| C72U C85G C99G C114G | ≤ -4.2 |
| A64G G86A | -4.08 |
| A73U A97U A115G | -3.45 |
| A64G C87A A115G C125A U148C C149G | ≤ -4.2 |
| C69G A91G | -3.88 |
| G68U C79G G84A C105U A147U | ≤ -4.2 |
| A73U G141A | -2.24 |
| A73G C87G G88C G124C U127G G143C U144A | ≤ -4.2 |
| C69A A89U | -1.41 |
| C75U G133U | -3.54 |
| C76A A119U | -0.979 |
| G65A C69A G84A | -1.8 |
| C69U C87A U90A G117U | ≤ -4.2 |
| C69U C95U U101G G152C | -3.5 |
| A73G U130C | 0.842 |
| A73U C116G | -2.81 |
| C75A G86A U104G A106G | ≤ -4.2 |
| C75U C85U U135G U146A | -3.82 |
| G70C G81A C96A C108U A120G A138C | ≤ -4.2 |
| A66U C87G U90G U102A C132U | ≤ -4.2 |
| G67U C96G | -3.31 |
| C63U C99G | -1.04 |
| A73U C76U | -1.32 |
| A73U A115G | -2.08 |

| Variant | polymerase ribozyme fitness (log ratio) |
| --- | --- |
| G74C C99U | ≤ -4.2 |
| C75A G80C C96G C99A G117A | ≤ -4.2 |
| A66G C85A | -3.39 |
| A64C A66U A122G | ≤ -4.2 |
| C69A C85U | -1.65 |
| G70C C87A G140C | ≤ -4.2 |
| G67C G88U C149A | ≤ -4.2 |
| G74A A106U A107U G133U | -3.93 |
| G67C C85U G126U G133C G143A | ≤ -4.2 |
| C72A C93A | ≤ -4.2 |
| G71A G84U U101C A142C | ≤ -4.2 |
| G68A U90G A150U | ≤ -4.2 |
| C75G C87U | -3.2 |
| G70C A98U | -2.78 |
| A66C A106G U144G | ≤ -4.2 |
| G68A C96A C99U A110G U145C | ≤ -4.2 |
| A66G A97U | ≤ -4.2 |
| A64G C85U | -3.21 |
| A73G C125U | -0.349 |
| G71A C95U | -3.12 |
| A73G C75U U77C A89U G136A C149G | ≤ -4.2 |
| A73C C87A | ≤ -4.2 |
| C75U C96U | -0.743 |

Source: the RNAGym collection of RNA variant scans (doi:10.1073/pnas.2313332121)
